Measurements reported in patent US20080221057A1, “SECRETED PROTEIN CCDC80 REGULATES ADIPOCYTE DIFFERENTIATION” (Wyeth, priority 2007, published 2008).

Columns and labels:
Assay type in all cases: cell-based, mouse
[1] = tested on: 3T3-L1 cells; experiment: 3T3-L1 adipocyte differentiation, lipid accumulation by oil red O staining; details: data not shown
Procedure: 3T3-L1 cells were maintained in DMEM containing 20% calf serum in an atmosphere of 10% CO2 at 37° C. Two days post-confluence, cells were induced to differentiate into adipocyte using DMEM containing 10% FBS supplemented with 500 μM 3-isobutyl-1-methylxanthine, 1 μM dexamethasone and 1.7 μM insulin for 4 days, followed by DMEM containing 10% FBS and 0.85 μM insulin for 2 days, then DMEM containing only 10% FBS for an additional 2-4 days. Neutral lipid accumulation in formalin-fixed adipocytes was determined by oil red O staining according to methods well known in the art.

[2] = tested on: Ccdc80 mRNA; experiment: Ccdc80 mRNA expression in growth-arrested 3T3-L1 cells treated with adipogenic inducers, real-time PCR; details: growth-arrested 3T3-L1 cells treated with one or more adipogenic inducers for 96 hr
Procedure: RNA from undifferentiated and differentiated 3T3-L1 adipocytes, tissues from normal, 8- to 12-week-old male C57BL/6J mice, as well as tissues from 10-week-old male ob/ob and age-matched wild-type control mice, was obtained as described (Lake et al., J. Lipid Res 46:2477-2487, 2005). For thiazolidinedione (TZD) treatment, 10-week-old male ob/ob mice were gavaged once per day with 15 mg/kg rosiglitazone or vehicle for 21 days. Primary adipocytes and stromal vascular fraction were prepared from the epididymal adipose tissue of 8- to 12-week-old male C57BL/6J mice as described (Lake et al., J. Lipid Res 46:2477-2487, 2005). Total RNA was extracted using Trizol (Invitrogen) and purified using the RNeasy kit (Qiagen). RNA from human tissues was obtained from Clontech (Mountain View, Calif.). […] Biol. Chem. 281:27167-27177, 2006). Gene expression was also measured by real-time PCR. (n=3-6 mice per group)*p<0.05. Taqman real-time quantitative PCR was performed on a 7900HT fast real-time PCR system (Applied Biosystems) according to the manufacturer's instructions using 18S as an endogenous control as described before (Lake et al., J. Lipid Res 46:2477-2487, 2005). Pre-designed gene-specific primers and probes were obtained from Applied Biosystems. […] Neutral lipid accumulation in formalin-fixed adipocytes was determined by oil red O staining according to methods well known in the art.

[3] = tested on: Ccdc80; experiment: Secretion of Ccdc80 from 3T3-L1 cells, western blot of conditioned medium; details: growth-arrested and terminally differentiated 3T3-L1, vs non-silencing shRNA
Procedure: The Ccdc80-FLAG containing expression vector (pSMED2-Ccdc80-FLAG), as well as a control vector (pSMED2) were transfected into HEK293 T cells. In particular, HEK293T were seeded at a density of 2×10^6 cells in 10-cm Petri dishes. Cells were transfected with pSmed2 or pSmed2-Ccdc80-FLAG using Fugene6 (Roche). Two days after transfection, cells were placed in serum-free DMEM and medium was collected 24 hr later. Endogenous secretion of Ccdc80 was evaluated in 3T3-L1 preadipocytes and fully differentiated adipocytes. 3T3-L1 cells were rinsed twice with PBS and incubated in serum-free DMEM for 48 hrs before medium was collected. Conditioned media were analyzed by 4-10% SDS-PAGE followed by silver staining or immunological detection with anti-FLAG M2 (293T) or anti-Ccdc80 (3T3-L1) antibodies.

[4] = tested on: Ccdc80 mRNA; experiment: Silencing of Ccdc80 by RNA interference in stable 3T3-L1 cell lines, Ccdc80 mRNA by real-time PCR; details: stable 3T3-L1 line, vs non-silencing shRNA
Procedure: RNA from undifferentiated and differentiated 3T3-L1 adipocytes, tissues from normal, 8- to 12-week-old male C57BL/6J mice, as well as tissues from 10-week-old male ob/ob and age-matched wild-type control mice, was obtained as described (Lake et al., J. Lipid Res 46:2477-2487, 2005). For thiazolidinedione (TZD) treatment, 10-week-old male ob/ob mice were gavaged once per day with 15 mg/kg rosiglitazone or vehicle for 21 days. Primary adipocytes and stromal vascular fraction were prepared from the epididymal adipose tissue of 8- to 12-week-old male C57BL/6J mice as described (Lake et al., J. Lipid Res 46:2477-2487, 2005). Total RNA was extracted using Trizol (Invitrogen) and purified using the RNeasy kit (Qiagen). RNA from human tissues was obtained from Clontech (Mountain View, Calif.). Gene expression profiling was performed using the Mouse Genome 430 2.0 array (Affymetrix) as previously described (Berasi et al., J. Biol. Chem. 281:27167-27177, 2006). Gene expression was also measured by real-time PCR. (n=3-6 mice per group)*p<0.05. Taqman real-time quantitative PCR was performed on a 7900HT fast real-time PCR system (Applied Biosystems) according to the manufacturer's instructions using 18S as an endogenous control as described before (Lake et al., J. Lipid Res 46:2477-2487, 2005). Pre-designed gene-specific primers and probes were obtained from Applied Biosystems. […]

[5] = tested on: 3T3-L1 cells; experiment: mRNA expression of genes involved in adipogenesis, metabolism and signaling in 3T3-L1 cells (microarray, real-time PCR)
Procedure: (§1) RNA from undifferentiated and differentiated 3T3-L1 adipocytes, tissues from normal, 8- to 12-week-old male C57BL/6J mice, as well as tissues from 10-week-old male ob/ob and age-matched wild-type control mice, was obtained as described (Lake et al., J. Lipid Res 46:2477-2487, 2005). For thiazolidinedione (TZD) treatment, 10-week-old male ob/ob mice were gavaged once per day with 15 mg/kg rosiglitazone or vehicle for 21 days. Primary adipocytes and stromal vascular fraction were prepared from the epididymal adipose tissue of 8- to 12-week-old male C57BL/6J mice as described (Lake et al., J. Lipid Res 46:2477-2487, 2005). Total RNA was extracted using Trizol (Invitrogen) and purified using the RNeasy kit (Qiagen). RNA from human tissues was obtained from Clontech (Mountain View, Calif.). Gene expression profiling was performed using the Mouse Genome 430 2.0 array (Affymetrix) as previously described (Berasi et al., J. Biol. Chem. 281:27167-27177, 2006). Gene expression was also measured by real-time PCR. (n=3-6 mice per group)*p<0.05. Taqman real-time quantitative PCR was performed on a 7900HT fast real-time PCR system (Applied Biosystems) according to the manufacturer's instructions using 18S as an endogenous control as described before (Lake et al., J. Lipid Res 46:2477-2487, 2005). Pre-designed gene-specific primers and probes were obtained from Applied Biosystems. Data shown in FIGS. 1A-E and 1G, FIG. 3 B-D, FIG. 4D, FIG. 5A, C, D, FIG. 6, and FIG. 7A are obtained by real-time PCR; data shown in FIG. 1F, and FIG. 4C are derived from microarray analysis.

[6] = tested on: Wnt/β-catenin signaling pathway; experiment: Wnt/β-catenin pathway gene expression in 3T3-L1 cells, real-time PCR low-density array
Procedure: as §1

[7] = tested on: 3T3-L1 cells; experiment: Proliferation of 3T3-L1 pre-adipocytes; details: stable retroviral expression in 3T3-L1 cells
[8] = tested on: Akt and ERK; experiment: Insulin stimulation and immunoblot analysis of Akt and ERK phosphorylation in 3T3-L1 cells; details: Ccdc80-KD cells
Procedure: Differentiated 3T3-L1 adipocytes were deprived of serum for 2 hr before stimulation with 10 nM insulin for 10 min. Cells were rinsed twice in ice-cold PBS and lysed as previously described (Tremblay and Marette, J. Biol. Chem. 276:38052-38060, 2001). Equal amounts of proteins were separated on 4-12% SDS-PAGE and transferred to nitrocellulose membranes. Phosphorylation of Akt (Ser473) and ERK-½ (Thr202/Tyr204) was determined using phospho-specific antibodies (Cell Signaling Technologies).

[9] = tested on: TCF-mediated transcriptional activity; experiment: TOPFLASH luciferase reporter assay in 3T3-L1 cells; details: vs non-silencing shRNA
Procedure: HepG2 cells were seeded at a density of 8×10^4 cells per well in 24-well plates and grown for 24 hr in antibiotic-free DMEM containing 10% FBS. Cells were transfected with 0.8 μg TOPFLASH and 0.2 μg β-galactosidase reporter plasmids using Lipofectamine 2000 (Invitrogen), rinsed with PBS 4 hr later and infected with adenovirus encoding either GFP or Ccdc80 in opti-MEM. Serum (final concentration: 10% FBS) was added to each well 2 hr after infection and cells were collected 24 hr later. 3T3-L1 cells were seeded at a density of 2.5×10^5 cells per well in 24-well plates. Cells were transfected with 1 μg TOPFLASH and 0.2 μg β-galactosidase reporter plasmids using Fugene 6 and grown in DMEM containing 20% calf serum until 2 days post-confluency. Cells were collected prior to and 24, 48 and 96 hr after induction of differentiation with insulin, 3-isobutyl-1-methylxanthine and dexamethasone as described above. Luciferase and β-galactosidase activities were measured according to manufacturer's instructions (Promega). Luciferase value was normalized to β-galactosidase activity.

[10] = Ccdc80-KD cells, end of differentiation, microarray

## N#CC(=C(/N)Sc1ccccc1N)/C(C#N)=C(\N)Sc1ccccc1N [U0126]
[1]; Ccdc80-KD cells, 1 or 10 μM
  reversal of inhibited adipogenesis phenotype: no reversal of phenotype
[1]; control cells, treatment during clonal expansion
  adipogenesis of control cells: inhibited adipogenesis

## insulin
[2]
  Ccdc80 mRNA levels: significantly reduce

## CC(C)Cn1c(=O)n(C)c(=O)c2[nH]cnc21 [IBMX, 3-isobutyl-1-methylxanthine]
[2]
  Ccdc80 mRNA levels: significantly reduce

B1: Ccdc80 shRNA: short hairpin RNA against mouse Ccdc80 (position 2015-2037), encoded by SEQ ID NO: 3, expressed from a retroviral vector (nucleic acid)
chain: UGCUGUUGACAGUGAGCGCCCUGAGAAGGAGAAGAAGAAAUAGUGAAGCCACAGAUGUAUUUCUUCUUCUCCUUCUCAGGUUGCCUACUGCCUCGGA
[1]; knockdown cell line, end of the differentiation protocol
  ability to differentiate into adipocytes (oil red O staining): reduced oil red O staining
[3]
  secretion of Ccdc80 protein: markedly blunted the secretion
[4]
  reduction of the expression of Ccdc80: 40-50%
[5]; Ccdc80-KD cells
  expression of GLUT1: unchanged
  expression of GLUT4: decreased
[5]; [10]
  expression of C/EBPα and PPARγ: significantly decreased
  expression of KLF5 and TCF4: significantly increased
  expression of genes involved in lipid metabolism (aP2, CD36, DGAT1/2, LIPIN1, LPL and SCD1/2): impaired
[5]; Ccdc80-KD cells, real-time PCR, maintained throughout terminal differentiation
  magnitude of induction of aP2, C/EBPα and PPARγ during clonal expansion: severely attenuated
[5]; control vs knockdown cells
  expression of common mediators of the insulin signaling pathway: no obvious difference
[6]; 3T3-L1, change from growth arrest to clonal expansion, adenovirus at MOI 2000
  repression of Cyclin D1 mRNA levels by adipogenic inducers during clonal expansion: severely compromised
[6]; Ccdc80-KD cells during differentiation
  expression of β-catenin signaling mediators (APC, β-catenin, Dvl-1, Frizzled-1, GSK3 A, LRP5/6 and Wnt10b): Only very little changes
[6]; Ccdc80-KD cells, after terminal differentiation
  TCF4 mRNA levels: increased
[6]; Ccdc80-KD cells, following clonal expansion
  expression of LEF1: down-regulation
[7]
  proliferation of pre-adipocyte: increased
[8]; 10 nM insulin for 10 min
  insulin-stimulated phosphorylation of Akt and ERK1/2: unaffected
[8]; no insulin
  basal phosphorylation of ERK1/2: elevated
[9]; growth arrest (T=0)
  TOPFLASH activity: similar
[9]; throughout clonal expansion (24, 48 and 96 hr after induction)
  TOPFLASH activity: significantly more elevated
